In the nanobody polyreactivity screen of Harvey et al. (2022):

Assay: yeast display, Sf9 membrane polyspecificity reagent, FACS + sequencing; frameworks hold sequencing errors
Procedure, shortened: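 Nanobodies from a synthetic yeast display library (Saccharomyces cerevisiae BJ5465), induced 36–48 hours with galactose, were stained 1 hour at 4 °C with 10% biotinylated, detergent-solubilized Sf9 membrane reagent, enriched on streptavidin microbeads, then FACS-sorted. Anti-HA (expression) and streptavidin (reagent binding) fluorescence set low and high (top ~1%) gates. Polyreactivity labels come from the gate of origin. Genes were colony-PCR amplified, MiSeq 2 × 250 sequenced and filtered by CDR length.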

Sequence	polyreactivity (PSR sort gate)
QVQLVESGGGLVQAGGSLRLSCAPSVSINNHYAMGWYRQAPGKERELVAAISRSGGLTYYADSVKGRFTISRDNAKNTVYLQMNCLIAEDTAVYYCDAGTSWPWYQRDYWGQGTQVTVSS	low polyreactivity
QVQLEESGGGLVQARGSLRLSCAASGSTFNSYAMGWYRQAPGKERELVAAISSTGGNTYYADSVKGRFTISLDNAKNTVYLQMNSLKPEDTAVYYCNARRYGKVVRSSYNYWGQGTQVTVSS	high polyreactivity
QVQLVESGGGLVQAVGSLLLSCAASGSIFRVYAMGWSRQAPGKERELVAAISVSGSSTYYADSVKGRFTISRDNAKNTVYFQMNCLIPEDTAVYYCATKQRRGYWGYITAYARYYWGQGTQVTVSS	high polyreactivity
QVQHVESGGGLVQAGGSLRLSCAASGGIFHGYAMGWYRQAPGKERELVAAISRGGSTNYADSVKGRFTISRDNAKNTVYLQMNSLKPQDTAVYYCAARTRWFKGYDYWGQGTQVTVSS	high polyreactivity
QVQLVESGGGLVQAGGSLRLSCAASGRIYGYAMGWYRQAPGKEREFVAVISRRGSSTYYADSVKGRFTISRDNAKNTVYLQMNSLKPEDTAVYYCAAGKFYYSIGPGYDYWGQGTQVTVSS	high polyreactivity
QVQLVESGGGLVQEGGSLRLSCAASGRIFKPYVMGWYRQAPGKERELVAAISWSGGASTYYADSVKGRFTISRENAKNTVYLQMNSLKPEDTAVYYCNAAKRNRYDYWGQGTQVTVSS	low polyreactivity
QVQLVESGGGLVQAGGSLRLSCAASGRTFERYAMGWYRQAPGQERELVAGITGRGGRTYYADSVKGRFTISRDNAKNTVYLQRNSLKPEDTAVYYCNKDTWVIHNYRYDYWGQGTQVTVSS	low polyreactivity
QVQLVESGGGLVQAGGSLRLSCAASGRTFSGNAMGWYRQAPGKERELVATITRRGGSTYYADSVKGRFTISRDNAKNTVYLQMNSLKPEDNAVYYCAARRVVNGGQGYESWGQGTQVTVSS	high polyreactivity
QVQLVESGGGLVQAGGSLRLSCAASGITFYIYAMGWYRQAPGKERELVAAISDDGSTHYADSVKGRFTISRDNAKNTVYLQMNSLTPEDTAVYYCNADDDWFFDFFDYDYWGQGTQVTVSS	low polyreactivity
QVQLVESGGGLVQAGGSLRLSCAASGITFYANTMGWYRQAPGKERELVAAISGIGGSTYYADSVMGRFAISRDNAKNTVYLQMNSLKPEDTAVYYCNADVYYFLFGTFDYWGQGTQVTVSS	low polyreactivity
QVQLVESGGGLVQAGGSLRLSCAASGRIFWRYAMGWYRQAPGKERELVAAITWSVGSTYYADSVKGRFTISRDNAKNTVYLLMNSLKPEDTAVYYCATDVKNVRYRYRYDYWGQGTQVTVSS	low polyreactivity
QVQLVESGGGLVQAGGRHRLSCAASGSTFSYNAMGWYRQAPGKERELVATISNTDSTNYADSVKGRFTISRDNAKNTVYLQMNSLKPEDTAVYYCAVVSARFDYEYWGQGTQVTVSS	low polyreactivity
QVQLVESGGGLVQAGGSLRLSCAASGFTFRLYTMGWYRQAPGKDRELVAGISTSGGSTYYADSVKGRFTISRDNAKNTVYLQMNSLKPEDTAVYYCAAQAFTSYDYWGQGTQVTVSS	high polyreactivity
QVQLVESGGGLVQAGGSLRLSCAASGSTFGWNAMGWYRPAPGKERELVAAISSSGGSTNYADSVKGRFTISRDNAKNTVYLQMNSLKPEDTAVYYCAARYRTLTKYYWGQGTQVTVSS	low polyreactivity
PVLLVECGGALVQAGGSLRLTSAASGRIIKLYAMGWYRQAPGKVREFVAALTRSGARTYYADSVKGRFTISRDNAKNTVYFQMYSMKPEDSAVYSCAAYDTYDWYDYWGQGTQVTVSS	high polyreactivity
QVQLVESGGGLVQAGGSLRLSCAASGFTFWTYAMGWYRQAPGKERELVAAIDSGGSTYYADSVKGRFTITRDNAKNTVYLQMNSLKPEDTAVYYCNAGPSVTSGYDYDYWGQGTQVTVSS	low polyreactivity
QVQLVESGGGLVQAGGSLRLSCAASGSIFYVYAMGWYRQAPGKERELVASIRWIGDRTYYADSVKGRFTISRDNAKNTVYLQMNSLKPEDTAVYYCAADPRYYGYYYLTPRYYYWGQGTQVTVSS	high polyreactivity
QVQLVESGGGIVQAGGRHRLSCAASGRTFWRNPMGWYSPAPGKERELVASIRITGGSTYYADSVMGRFTISRDNAKTTVYLQMNSLNAEDTAVYYCPASSGIRFVGLSYPIGNYYYWGQGSQVTVSS	high polyreactivity
QVQLVESGGGLVQAGGSLRLSCAASGFIFVGYGMGWYRQAPGKERELVAVITASGGSTYYADSVKGRFTISRDYAKKTVYLQMNSLKPEATAVYYCAARVGRYGYSEYYYWGHGTQVTVSS	high polyreactivity
QVQLVESGGGLVQAGGSLRLSCAASVSTYIYYAMGWYRQAPGKERELVAAISQSGGSTYYADSVKGRFTISRDNAKNTVYLQMNSLKPEDTAVYYCAARLRHLGLGRYGFDYWGQGTQVTVSS	high polyreactivity
QVQLVESGGGLVQAGGSLRLSCAASGIIFWWYAMGWYRQAPGKERELVAAISGTGGSTYYADSVKGRFTISRDNAKNTVYFQMNSLKPEDTAVYYCAARGKSSSYYDYDYWGQGTQVTVSS	low polyreactivity
QVQLVESGGGLVQAGGSLRLSCAASGNTFYKYAMGWYRQAPGKERELVADISWSGGSTYYADSVKGRFTISRDNAKNTVYLQMNSLKPEDTAVYYCNADTPVWDGHAYPVDYWGQGTQVTVSS	low polyreactivity

Sequence	polyreactivity (PSR sort gate)
QVQLVVSGGGLVQAGGSLRLSCAASGNTFTKYAMGWYRQAPGKERELVAGITRGGSTNYADSVKGRFTISRDNAKNTVYLQMNSLIPEDTAVYYCNARPVYGSRFYSAVRMEYWGQATQVTVSS	low polyreactivity
QVQLVESGGGLVQAGGILRLSCAASGSIFYAYAMGWYRQAPGKERELVASITWSGASTYYADSVKGRFTISRDNAKNTVYLQMNSLKPEDTAVYYCAATDQKLSLDYSSYEYWGQGTQVTVSS	low polyreactivity
QVQLVESGGGLVQAGGSLRLSCAASGSTFRTYAMGWYRQAPGKERELVAAISWSGGITYDADSVKGRFTISRDNAKNTVYLQMNSLKPEDTAVYFCDARLASWPLTYDFQWYEYWGQGTQVTVSS	low polyreactivity
QVQLVESGGGLVQAGGSLRLSCAASGFIFSIYAMGWYRQAPGKERELVAGIDNGGGTYYADSVKGRFTISRDNAKNTVYLQMNSLKPEDTAVYYCAADTYSIGELYDYWGQGTQVTVSS	low polyreactivity
QVQLVESGGGLVQAGGSLRLSCAASGSTFLWYAMGWYRQAPGKERELVAVIDWSGGSTSYADSVKGRFTISRDNAKNTVYLQMNSLKPEDTAVYYCAADYGHYYGLYYWGQGTQVTVSS	low polyreactivity
QVQLVESGGGLVQAGGSLRISCAASGSTFTTYSMGWYRQAPGKEREKVAAIRFSGGTTYYADSVKGRFTISRDNAKNTVYLQMNSLKPEDTAVYYCAAVYISRIFFGRARGDYWGQGTQVTVSS	low polyreactivity
QVQLVESGGGLVQAGGSLRLSCAASGIIFYWNAMGWYRQAPGKEREFVASISGSGGSTYADSVKGRFTISRDNAKKTVYLQMNSLKPEDTAVYYCAADFSNVGVQHDYYWGQGTQVTVSS	high polyreactivity
KVQLVESGGGLVQAGGSLRLSCAASGSTFFDNAKGWYRQAPGKERELVDAISWSGGSTYYADSVKGRFTISRDNAKNTVYFQMNSLKPEDTAVYYCAADWGHGTQVTVSS	low polyreactivity
QVQLVETGGGLVQAGGSLRLSCAASGSIFEYNGMGWYRQAPGKERELVAAITTTGTTDYADSVKGRFTISRDNAKNTVYLLMNSLKPEDTAVYYCAADYTYYYKGEYDYWGQGTQVTVSS	low polyreactivity
QVQLVESGGGLVQAGGSRRLSCAASGRTFFYNAMGWYRQAPGKERELLAAISYSGGSTYYADSVKGRFTISRDNAKNTVYLQMNSLKPEDTAVYYCAARDKTRSVRRTGMDYWGQGTQVTVSS	high polyreactivity
QVQLVESGGGLVQAGGSLRLSCAASGFTFIYYAMGWYRQAPGKERELVAAINRGGNTYYADSVKGRFTISRDNAKNTVYLQMNSLKPEDTAVYYCNARSYRRGHYYWGQGTQVTVSS	high polyreactivity
QVQLEDSGGGLVQAGGSLRLTSPASGSIFWYYDMGWYRQAPGKERELVAAITVIGSSTNYADSVKGRFTNSRDNAKITVYLQMNRLKPEDTAVYYCAAVRPPTPSRRREDYWGQGTQVTVSS	low polyreactivity
QVQLVESGGGLVQAGGSLRLSCAASGYTFSSNVMGWYRQAPGKERELVAAISANGARTYYADSVKGRFTISRDNAKNTVYLQMNSLKPEDTAVYYCAADYRWAGRYYYWGQGTQVTVSS	high polyreactivity
QVQLVESGGGLVQAGGSLSLSCAASGSTFKRYAMGWYRQAPGKERDLVASISSGGSTNYADSVKGRFTISRDNAKNTVNLQMNSLKPEETAVYYCAVSYRSFRYYWERYYSWGQGTQVTVSS	high polyreactivity
QVQLVESGGGLVQAGGSLRLSCAASGSIFTPYVKGWYRQAPGKERELVAAISKRGTRTYYSDSVKGRFTISRDNAKNTVYLQMNSLKPEDTAVYYCNAAVDYGSEHDYWGQGTQVTVSS	high polyreactivity
QVQLVESGGGLDQAGGSLRLSCAASGIIFLSYAMGRYRQAPGKERELVAAIRSRGDSTYYADSVKGRFTNSRDNAKNTVYLQMNSLKPEDTAVYYCNARQRRYPYGYWGQGTQVTVSS	high polyreactivity
QVQLVESGGGLVQAGCSRRLSCSASGSIFRGNSMGWYRPAPGKERELVAAITGSGGNTYYADSVKGRFTISRDNAKNTVYLQMNSLKPEDTAFYYCIADGWNTYIGPRRYRYDYWGQGTQVTVSS	low polyreactivity
QVQLVESGGGLVQAGGSLRLSCAASGRIFSINVKGWYRHAPGKERELVAAISKRGGSTYYADSVKGRFTISRDNAKNTVYLQMNSLKPEDTAVYYCAARRHYTYGNGPSRGGQMDYWGQGTQVTVSS	high polyreactivity
QVQLVESGGGLVQAGGSLRLSCAASGRIFYDYTMGWYRPAPGKERELVAAINSGGGSTYYADSVKGRFTISRDNAKITVYLQMNSLKPEDTAVYYCNADGQWNIWEYDYWGQGTQVTVSS	high polyreactivity
QVQLVESGGGLVQAGGSLRLSCAASGSIFAGNAMGWYRQAPGKERELVAAITWSGGSTYYADSVKGRFTISRDNAKNTVYLQMNSLKPEDTAVYYCAADPPGYVYGKRYYWGQGTQVTVSS	high polyreactivity
QVQLVESGGGLVQAGGSLRVSCAASGSIFIVYAMGWYRQAPGKDRELVATISSGGSTNYAVSVKGRFTISRDNAKNTVYVQMNTLKPEATAVYYCAAESYWGSGLVPGYDYWGQGTQGTVSS	low polyreactivity
